# Molecular target: human IL-23 receptor (huIL-23R/huIL-12Rβ1) on Baf3/KZ134/huIL-23R/huIL-12Rβ1 Clone 6 cells (human) (UniProt P42701)
# Assay: cell-based or functional assay
# Chain of human IL-23 receptor (huIL-23R/huIL-12Rβ1) on Baf3/KZ134/huIL-23R/huIL-12Rβ1 Clone 6 cells (human) (chain, as listed by the source, chain 1 of 2, other chains not shown): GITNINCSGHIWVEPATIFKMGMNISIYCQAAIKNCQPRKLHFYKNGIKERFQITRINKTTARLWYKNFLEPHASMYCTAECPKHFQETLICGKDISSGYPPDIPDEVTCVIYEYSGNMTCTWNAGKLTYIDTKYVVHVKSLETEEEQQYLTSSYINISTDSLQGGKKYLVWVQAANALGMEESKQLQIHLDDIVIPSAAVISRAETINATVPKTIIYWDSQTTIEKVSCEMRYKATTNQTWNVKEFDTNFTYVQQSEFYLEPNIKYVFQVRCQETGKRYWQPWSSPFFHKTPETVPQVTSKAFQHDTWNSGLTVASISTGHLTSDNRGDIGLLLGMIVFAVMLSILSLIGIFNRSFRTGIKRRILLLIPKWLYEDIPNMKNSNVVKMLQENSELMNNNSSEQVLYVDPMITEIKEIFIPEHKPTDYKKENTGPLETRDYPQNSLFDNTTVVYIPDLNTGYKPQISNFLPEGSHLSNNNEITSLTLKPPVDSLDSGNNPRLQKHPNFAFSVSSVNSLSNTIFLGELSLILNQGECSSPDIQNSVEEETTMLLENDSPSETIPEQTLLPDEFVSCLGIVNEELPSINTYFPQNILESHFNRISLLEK
substance,measurement,value
"human IL-23 (p19/p40 heterodimer), recombinant (from UniProt Q9NPF7 20-189; P29460 23-328) (ligand)","EC50, STAT3 phosphorylation in Baf3/KZ134/huIL-23R/huIL-12Rβ1 Clone 6 cells (ZymoGenetics IL-23)",0.02 nM
same,"EC50, STAT3 phosphorylation in Baf3/KZ134/huIL-23R/huIL-12Rβ1 Clone 6 cells (eBioscience IL-23)",0.03 nM

# — WO2009082624A2
